Key:
[1] = target: peptide 4 variant G373A expressed by HEK293T cells (human); test: western blot, relative to WT
[2] = target: peptide 4 variant A371G expressed by HEK293T cells (human); test: western blot, relative to WT
[3] = target: peptide 4 variant V374A expressed by HEK293T cells (human); test: western blot, relative to WT
[4] = target: T1, BTN1A1 peptide 4 Mutant 10 (W370A) (human); test: KD against BTN1A1-pep4- WT
T1 construct: The entry already carries the mutation; also called BTN1A1-pep4- Mutant 10; mutant peptide #10
T1 peptide: EVEVGDRTDAAIGVC

[5] = target: T2, BTN1A1 peptide 4 Mutant 9 (D369A) (human); test: KD against BTN1A1-pep4- WT
T2 construct: The entry already carries the mutation; also called BTN1A1-pep4- Mutant 9
T2 peptide: EVEVGDRTAWAIGVC

[6] = target: T3, BTN1A1 peptide 4 Mutant 7 (R367A) (human); test: KD against BTN1A1-pep4- WT
T3 construct: The entry already carries the mutation; also called BTN1A1-pep4- Mutant 7
T3 peptide: EVEVGDATDWAIGVC

[7] = target: T4, BTN1A1 peptide 4 Mutant 6 (D366A) (human); test: KD against BTN1A1-pep4- WT
T4 construct: The entry already carries the mutation; also called BTN1A1-pep4- Mutant 6; mutant peptide #6
T4 peptide: EVEVGARTDWAIGVC

[8] = target: T5, BTN1A1 Peptide 4 (human); test: KD against BTN1A1-pep4- WT
T5 construct: also called BTN1A1-pep4- WT; Pep4
T5 peptide: EVEVGDRTDWAIGVC

[9] = target: T6, BTN1A1 peptide 4 Mutant 11 (A371G) (human); test: KD against BTN1A1-pep4- WT
T6 construct: The entry already carries the mutation; also called BTN1A1-pep4- Mutant 11
T6 peptide: EVEVGDRTDWGIGVC

[10] = target: T7, TRIM11 peptide; test: KD against BTN1A1-pep4- WT
T7 peptide: EVEVGDRTSWALGVC

[11] = target: T8, BTN1A1 peptide 4 Mutant 12 (I372A) (human); test: KD against BTN1A1-pep4- WT
T8 construct: The entry already carries the mutation; also called Mutant 12 (1372A); BTN1A1-pep4- Mutant 12
T8 peptide: EVEVGDRTDWAAGVC

[12] = target: T9, BTN1A1 peptide 4 Mutant 5 (G365A) (human); test: KD against BTN1A1-pep4- WT
T9 construct: The entry already carries the mutation; also called BTN1A1-pep4- Mutant 5
T9 peptide: EVEVADRTDWAIGVC

[13] = target: T10, BTN1A1 peptide 4 Mutant 8 (T368A) (human); test: KD against BTN1A1-pep4- WT
T10 construct: The entry already carries the mutation; also called BTN1A1-pep4- Mutant 8
T10 peptide: EVEVGDRADWAIGVC

[14] = target: T1, BTN1A1 peptide 4 Mutant 10 (W370A); test: kinetics of peptide on STC43H11-1, separate assay, method not named
[15] = target: T2, BTN1A1 peptide 4 Mutant 9 (D369A); test: as above
[16] = target: T3, BTN1A1 peptide 4 Mutant 7 (R367A); test: as above
[17] = target: T4, BTN1A1 peptide 4 Mutant 6 (D366A); test: as above
[18] = target: T5, BTN1A1 Peptide 4; test: as above
[19] = target: T6, BTN1A1 peptide 4 Mutant 11 (A371G); test: as above
[20] = target: T7, TRIM11 peptide; test: as above
[21] = target: T8, BTN1A1 peptide 4 Mutant 12 (I372A); test: as above
[22] = target: T9, BTN1A1 peptide 4 Mutant 5 (G365A); test: as above
[23] = target: T10, BTN1A1 peptide 4 Mutant 8 (T368A); test: as above
[24] = target: T5, BTN1A1 Peptide 4; test: ELISA clone screen, STCube
[25] = target: T11, hBTN1A1 ICD (human, UniProt Q13410 270-526); test: ELISA clone screen, STCube
T11 sequence: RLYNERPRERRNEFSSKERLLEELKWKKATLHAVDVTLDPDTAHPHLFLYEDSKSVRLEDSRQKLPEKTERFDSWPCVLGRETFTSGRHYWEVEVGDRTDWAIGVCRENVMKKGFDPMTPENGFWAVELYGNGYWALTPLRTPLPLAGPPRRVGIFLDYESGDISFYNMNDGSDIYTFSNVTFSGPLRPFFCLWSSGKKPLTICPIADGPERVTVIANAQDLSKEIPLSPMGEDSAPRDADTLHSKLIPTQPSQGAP

[26] = target: T12, denatured hBTN1A1 ICD (human, UniProt Q13410 270-526); test: ELISA clone screen, STCube
T12 construct: Same protein as hBTN1A1 ICD, denatured before the ELISA; also called hBTN1A1 ICD denatured; Denatured ICD
T12 sequence: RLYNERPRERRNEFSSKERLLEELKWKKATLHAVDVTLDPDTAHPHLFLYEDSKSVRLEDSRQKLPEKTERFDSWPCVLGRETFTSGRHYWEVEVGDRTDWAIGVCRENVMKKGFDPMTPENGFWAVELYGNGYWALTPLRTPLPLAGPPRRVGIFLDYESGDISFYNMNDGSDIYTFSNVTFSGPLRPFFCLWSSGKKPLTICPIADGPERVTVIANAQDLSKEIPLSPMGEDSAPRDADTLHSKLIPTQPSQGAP

% binding Rel. Quant. [1]: 2.25%
% binding Rel. Quant. [2]: 9.41%
% binding Rel. Quant. [3]: 49.6%
Fold change [4]: 59 fold
Fold change [5]: 463 fold
Fold change [6]: 4 fold
Fold change [7]: 160 fold
Fold change [8]: 1 fold
Fold change [9]: 16 fold
Fold change [10]: 7360 fold
Fold change [11]: 126 fold
Fold change [12]: 20 fold
Fold change [13]: 21 fold
Kd [14]: 4.95 nM
koff [14]: 0.00106 s⁻¹
kon [14]: 215000 M⁻¹ s⁻¹
Kd [15]: 39.1 nM
koff [15]: 0.0101 s⁻¹
kon [15]: 258000 M⁻¹ s⁻¹
Kd [16]: 0.339 nM
koff [16]: 0.000153 s⁻¹
kon [16]: 453000 M⁻¹ s⁻¹
Kd [17]: 13.5 nM
koff [17]: 0.00082 s⁻¹
kon [17]: 60900 M⁻¹ s⁻¹
Kd [18]: 0.0844 nM
koff [18]: 1.62e-05 s⁻¹
kon [18]: 192000 M⁻¹ s⁻¹
Kd [19]: 1.39 nM
koff [19]: 0.000425 s⁻¹
kon [19]: 306000 M⁻¹ s⁻¹
Kd [20]: 621 nM
koff [20]: 0.1 s⁻¹
kon [20]: 162000 M⁻¹ s⁻¹
Kd [21]: 10.6 nM
koff [21]: 0.000778 s⁻¹
kon [21]: 73600 M⁻¹ s⁻¹
Kd [22]: 1.72 nM
koff [22]: 0.000146 s⁻¹
kon [22]: 84800 M⁻¹ s⁻¹
Kd [23]: 1.77 nM
koff [23]: 0.000822 s⁻¹
kon [23]: 464000 M⁻¹ s⁻¹
ELISA signal [24]: 0.945
ELISA signal [25]: 1.98
ELISA signal [26]: 0.111
B1: STC43H11-1 (antibody, V domains shown)
VH: QSLEESGGRLVTPGGSLTLTCTVSGIDLSSYAMGWVRQAPGEGLEWIGSIGTGGGTGYASWAKGRFTISKTSTTVDLKMTSLTASDTATYFCATSNLWGPGTLVTVSS
VL: QVLTQTASPVSAAVGGTVTINCQASQSVYNNNRCSWFQQKPGQPPKRLIYHTSTLDSGVPSRFKGSGSGTQFTLTISDVQCDDAATYYCLGNYDCSRADCAAFGGGTEVVVK
notes: From immunized New Zealand rabbits; IgG heavy chain and Kappa light chain; also called clone #43H11; Clone 43H11
